Patent US20180312587A1 (ADURO BIOTECH HOLDINGS EUROPE B V, published 2018)

T1: hSIRP-VγC1βC2β (human, UniProt O00241 30-398)
T1 chain: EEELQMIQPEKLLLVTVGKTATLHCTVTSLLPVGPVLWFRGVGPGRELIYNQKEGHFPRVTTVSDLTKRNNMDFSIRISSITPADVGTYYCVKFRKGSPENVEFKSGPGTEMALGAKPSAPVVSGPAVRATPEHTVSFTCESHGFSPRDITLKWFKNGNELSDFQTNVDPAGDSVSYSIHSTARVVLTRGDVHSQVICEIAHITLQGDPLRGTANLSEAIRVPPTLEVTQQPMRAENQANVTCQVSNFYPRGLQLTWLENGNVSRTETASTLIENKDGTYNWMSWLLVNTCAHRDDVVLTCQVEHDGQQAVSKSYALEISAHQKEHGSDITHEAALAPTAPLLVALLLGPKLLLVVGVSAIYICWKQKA


Assays:
[1] = target: T2, hSIRPα expressed on primary human cells (human, UniProt P78324 31-504); assay: flow cytometry, blockade of DyLight488-hCD47/Fc binding to CD14+ enriched monocytes, donor 2
T2 construct: whole, on cells; also called hSIRPα on primary human CD14+ monocytes; on primary human granulocytes
Method: To assess the blocking ability of hSIRPα.50A, CD14+ enriched monocytes cells were seeded in 96-well round bottomed tissue culture plates and incubated for 45 minutes with FcR Blocking Reagent (Miltenyi Biotec) and hSIRPα.50A antibody (200 μg/mL and dilutions thereof) in PBS/1% BSA at 4° C. […] After this labeling procedure, cells were washed two times, resuspended in PBS/1% BSA containing 0.1 μg/mL DAPI (BioLegend), and analysed by flow cytometry on the FACSVerse (BD Biosciences). Data were processed and analysed with FlowJo V10 software (FlowJo, LLC). […] IC50 values represent the concentration at which half of the inhibition is observed.

hSIRP-VγC1βC2β = target: T1, hSIRP-VγC1βC2β; assay: CELISA, CHO-K1 transfectants, domain exchange study
Source text: Based on the fold of SIRPα/β1/γ, the extracellular region can be subdivided into three separate domains: the Ig-like (immunoglobulin-like) V-type (IgV), Ig-like C1-type (IgC1), and Ig-like C2-type (IgC2) domain. The IgV domain is also known as the ligand-binding N-terminal domain of SIRPα and SIRPγ (which binds to CD47). The human SIRPβ1/γ mutants were designed based on the full length hSIRPβ1 sequence (SEQ ID NO: 38) and each individual Ig-like domain was substituted for the equivalent domain of human SIRPγ (SEQ ID NO: 40). […] Binding of hSIRPα.40A to the exchange mutants was tested using CELISA. To this end, CHO-K1 cells were transiently transfected, using Lipofectamine 2000, with the pCI-neo vectors encoding hSIRPαV1, hSIRPαV2, hSIRPβ1, hSIRP-VγC1βC2β, hSIRP-VβC1γC2β, and hSIRP-VβC1βC2γ, respectively. The transfected cells were cultured at 37° C., 5% CO₂ and 95% humidity in medium (DMEM-F12 (Gibco) with 5% New Born Calf serum (Biowest) and Pen/Strep (Gibco)) until confluent. Subsequently, cells were trypsinized and seeded in 96-well flat-bottom tissue culture plates and cultured at 37° C., 5% CO₂ and 95% humidity in culture medium until confluent. Then, culture medium was removed and cells were incubated for 1 hour at 37° C., 5% CO₂ and 95% humidity with hSIRPα.40A, hSIRPα.50A, and anti-hSIRPα clone SE5A5 antibodies. Next, cells were washed with PBS-T and incubated for 1 hour at 37° C., 5% CO₂ and 95% humidity with goat-anti-mouse IgG-HRP conjugate (Southern Biotech). After that, cells were washed three times with PBS-T and anti-hSIRPα immunoreactivity was visualized with TMB Stabilized Chromogen (Invitrogen). Reactions were stopped with 0.5 M H₂SO₄ and absorbances were read at 450 and 610 nm.

human SIRPβ1 = target: T3, human SIRPβ1 (human, UniProt O00241 30-398); assay: CELISA, CHO-K1 transfectants
T3 construct: also called hSIRPβ1
Method: Reactivity was confirmed using CHO-K1 cells (ATCC CCL-61) that had been transiently transfected, using Lipofectamine 2000, with cDNA encoding the full length open reading frame of hSIRPαV1, hSIRPαV2, hSIRPβ1, hSIRPβL, and hSIRPγ subcloned into the pCI-neo vector (Promega, Madison, Wis.). CHO-K1.hSIRPαV1, CHO-K1.hSIRPαV2, CHO-K1.hSIRPβ1, CHO-K1.hSIRPβL, and CHO-K1.hSIRPγ cells were seeded in culture medium (DMEM-F12 (Gibco) supplemented with 5% New Born Calf Serum (BioWest) and Pen/Strep (Gibco)) in 96-well flat-bottom tissue culture plates and incubated at 37° C., 5% CO₂ and 95% humidity for 24 hours. Subsequently, culture medium was removed and cells were incubated for 1 hour at 37° C., 5% CO₂ and 95% humidity with purified hSIRPα antibodies (used at 10 μg/mL and dilutions thereof). Next, cells were washed with PBS-T and incubated for 1 hour at 37° C., 5% CO₂ and 95% humidity with goat-anti-mouse IgG-HRP (Southern Biotech). Subsequently, cells were washed three times with PBS-T and immunoreactivity against hSIRPαV1, hSIRPαV2, hSIRPβ1, hSIRPβL, and hSIRPγ was visualized with TMB Stabilized Chromogen (Invitrogen). Reactions were stopped with 0.5 M H₂SO₄ and absorbances were read at 450 and 610 nm.
The KWAR23 antibody cross-reacts with all members of the SIRP receptor family tested: it binds to hSIRPαV1, hSIRPαV2, hSIRPβ1, hSIRPβL, and hSIRPγ.

T2 sequence (P78324 31-504): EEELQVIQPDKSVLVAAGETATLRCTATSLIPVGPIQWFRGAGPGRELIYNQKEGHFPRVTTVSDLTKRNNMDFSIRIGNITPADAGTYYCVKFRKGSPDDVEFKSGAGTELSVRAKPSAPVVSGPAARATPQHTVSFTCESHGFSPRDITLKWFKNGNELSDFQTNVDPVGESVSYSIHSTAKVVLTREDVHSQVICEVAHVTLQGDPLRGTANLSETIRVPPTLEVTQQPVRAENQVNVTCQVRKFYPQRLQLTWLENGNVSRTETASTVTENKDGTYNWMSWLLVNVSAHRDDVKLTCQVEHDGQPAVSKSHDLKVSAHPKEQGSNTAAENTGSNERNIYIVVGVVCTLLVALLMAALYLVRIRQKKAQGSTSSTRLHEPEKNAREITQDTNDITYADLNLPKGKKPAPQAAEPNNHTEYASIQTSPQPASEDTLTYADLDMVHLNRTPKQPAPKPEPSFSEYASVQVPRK
T3 sequence (O00241 30-398 limits assumed): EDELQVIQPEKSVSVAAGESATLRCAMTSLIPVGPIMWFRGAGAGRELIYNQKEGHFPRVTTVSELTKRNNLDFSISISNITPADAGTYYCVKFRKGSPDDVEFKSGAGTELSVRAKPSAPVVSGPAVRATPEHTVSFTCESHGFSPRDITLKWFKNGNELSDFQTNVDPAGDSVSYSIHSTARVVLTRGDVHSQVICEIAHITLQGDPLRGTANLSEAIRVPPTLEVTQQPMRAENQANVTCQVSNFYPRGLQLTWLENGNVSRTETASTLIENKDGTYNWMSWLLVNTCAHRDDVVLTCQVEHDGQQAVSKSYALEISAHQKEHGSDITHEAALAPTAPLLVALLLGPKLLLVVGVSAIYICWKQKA

IC50 [1] [nM]	EC50 (hSIRP-VγC1βC2β) [nM]	EC50 (human SIRPβ1) [nM]	Binder
1.03	2.52	–	hSIRPα.50A (antibody, V domains shown, light chain constant domain not tied; also called mouse hSIRPα.50A; hSIRPα.50A.mIgG1) VH: QVQLQQSGPELVKPGASVRISCKASGFTFTNYYIHWVKQRPGQGLEWIGWIYPGNVNTKYNEKFKAKATLTADKSSTTAYMQLSSLASEDSAVYFCARPTIIATDFDVWGAGTTVTVSS VL: DIVMTQSHKFMSTSVGDRVNITCKASQGVGTAVGWYQQKPGQSPRLLIYWASTRHTGVPDRFTGSGSGTDFSLAISNVQSEDLADYFCQQYSTYPFTFGGGTNLEIK
–	–	0.14	KWAR23 (antibody, V domains shown) VH: EVQLQQSGAELVKPGASVKLSCTASGFNIKDYYIHWVQQRTEQGLEWIGRIDPEDGETKYAPKFQDKATITADTSSNTAYLHLSSLTSEDTAVYYCARWGAYWGQGTLVTVSS VL: QIVLTQSPAIMSASPGEKVTLTCSASSSVSSSYLYWYQQKPGSSPKLWIYSTSNLASGVPARFSGSGSGTSYSLTISSMEAEDAASYFCHQWSSYPRTFGAGTKLELK
